Test results reported in patent US20140248638A1 (BAXALTA, published 2014).

Molecular target: T1, human oxMIF (oxidized macrophage migration inhibitory factor) (human, UniProt P14174 2-115, oxidized isoform: made by mild oxidation (cystine, GSSG) or by 0.2% Proclin300 or protein crosslinkers (e.g. BMOE); the modified residues are not stated)
T1 construct: mature; a conformational/redox isoform; also called oxidized MIF; recombinant human oxMIF
Test: sandwich ELISA, plate coated with RAM0, human EDTA plasma; calibrated with recombinant human MIF in 0.2% ProClin300

T1 sequence (P14174 2-115): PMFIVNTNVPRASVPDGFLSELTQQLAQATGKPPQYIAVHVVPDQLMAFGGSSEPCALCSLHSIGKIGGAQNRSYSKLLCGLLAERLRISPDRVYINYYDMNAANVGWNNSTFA

B1: human anti-MIF monoclonal antibody RAM0 (antibody, human IgG1, kappa, V domains shown)
VH: EVQLLESGGGLVQPGGSLRLSCAASGFTFSWYAMDWVRQAPGKGLEWVSGIYPSGGRTKYADSVKGRFTISRDNSKNTLYLQMNSLRAEDTAVYYCARVNVIAVAGTGYYYYGMDVWGQGTTVTVSS
VL: DIQMTQSPGTLSLSPGERATLSCRASQGVSSSSLAWYQQKPGQAPRLLIYGTSSRATGIPDRFSGSASGTDFTLTISRLQPEDFAVYYCQQYGRSLTFGGGTKVEIKR
notes: Deposits DSM 25864 and DSM 25863
binding result: binds
